The values that follow come from paper PMC2873925.

Assay [1] concerns the target Neisseria meningitidis Opc protein (outer membrane adhesin), on acapsulate Opc+ bacteria of serogroup A strain C751 (Neisseria meningitidis serogroup A strain C751) (UniProt Q7DDI3). In words: depletion from serum by sequential adsorption with whole bacteria, immuno-dot blot of the serum; a serum sample adsorbed sequentially with three fresh live bacterial suspensions, one hour each; remaining activated Vn (mAb 8E6), total Vn and Fn (polyclonal antibodies) by immuno-dot blot and densitometry.

Assay [2] has as its target Neisseria meningitidis Opc protein, on capsulate Opc+ bacteria of serogroup B strain MC58 (Neisseria meningitidis serogroup B strain MC58). The assay is described as above.
For assay [3] the target is unchanged.
The target in assay [4] is Neisseria meningitidis Opc protein (outer membrane adhesin), on acapsulate Opc+ bacteria of serogroup A strain C751 (Neisseria meningitidis serogroup A strain C751) (UniProt Q7DDI3).

Sequence of fibronectin (human), of normal human serum and purified plasma fibronectin, P02751 32-2477 (natural protein) (P02751 32-2477): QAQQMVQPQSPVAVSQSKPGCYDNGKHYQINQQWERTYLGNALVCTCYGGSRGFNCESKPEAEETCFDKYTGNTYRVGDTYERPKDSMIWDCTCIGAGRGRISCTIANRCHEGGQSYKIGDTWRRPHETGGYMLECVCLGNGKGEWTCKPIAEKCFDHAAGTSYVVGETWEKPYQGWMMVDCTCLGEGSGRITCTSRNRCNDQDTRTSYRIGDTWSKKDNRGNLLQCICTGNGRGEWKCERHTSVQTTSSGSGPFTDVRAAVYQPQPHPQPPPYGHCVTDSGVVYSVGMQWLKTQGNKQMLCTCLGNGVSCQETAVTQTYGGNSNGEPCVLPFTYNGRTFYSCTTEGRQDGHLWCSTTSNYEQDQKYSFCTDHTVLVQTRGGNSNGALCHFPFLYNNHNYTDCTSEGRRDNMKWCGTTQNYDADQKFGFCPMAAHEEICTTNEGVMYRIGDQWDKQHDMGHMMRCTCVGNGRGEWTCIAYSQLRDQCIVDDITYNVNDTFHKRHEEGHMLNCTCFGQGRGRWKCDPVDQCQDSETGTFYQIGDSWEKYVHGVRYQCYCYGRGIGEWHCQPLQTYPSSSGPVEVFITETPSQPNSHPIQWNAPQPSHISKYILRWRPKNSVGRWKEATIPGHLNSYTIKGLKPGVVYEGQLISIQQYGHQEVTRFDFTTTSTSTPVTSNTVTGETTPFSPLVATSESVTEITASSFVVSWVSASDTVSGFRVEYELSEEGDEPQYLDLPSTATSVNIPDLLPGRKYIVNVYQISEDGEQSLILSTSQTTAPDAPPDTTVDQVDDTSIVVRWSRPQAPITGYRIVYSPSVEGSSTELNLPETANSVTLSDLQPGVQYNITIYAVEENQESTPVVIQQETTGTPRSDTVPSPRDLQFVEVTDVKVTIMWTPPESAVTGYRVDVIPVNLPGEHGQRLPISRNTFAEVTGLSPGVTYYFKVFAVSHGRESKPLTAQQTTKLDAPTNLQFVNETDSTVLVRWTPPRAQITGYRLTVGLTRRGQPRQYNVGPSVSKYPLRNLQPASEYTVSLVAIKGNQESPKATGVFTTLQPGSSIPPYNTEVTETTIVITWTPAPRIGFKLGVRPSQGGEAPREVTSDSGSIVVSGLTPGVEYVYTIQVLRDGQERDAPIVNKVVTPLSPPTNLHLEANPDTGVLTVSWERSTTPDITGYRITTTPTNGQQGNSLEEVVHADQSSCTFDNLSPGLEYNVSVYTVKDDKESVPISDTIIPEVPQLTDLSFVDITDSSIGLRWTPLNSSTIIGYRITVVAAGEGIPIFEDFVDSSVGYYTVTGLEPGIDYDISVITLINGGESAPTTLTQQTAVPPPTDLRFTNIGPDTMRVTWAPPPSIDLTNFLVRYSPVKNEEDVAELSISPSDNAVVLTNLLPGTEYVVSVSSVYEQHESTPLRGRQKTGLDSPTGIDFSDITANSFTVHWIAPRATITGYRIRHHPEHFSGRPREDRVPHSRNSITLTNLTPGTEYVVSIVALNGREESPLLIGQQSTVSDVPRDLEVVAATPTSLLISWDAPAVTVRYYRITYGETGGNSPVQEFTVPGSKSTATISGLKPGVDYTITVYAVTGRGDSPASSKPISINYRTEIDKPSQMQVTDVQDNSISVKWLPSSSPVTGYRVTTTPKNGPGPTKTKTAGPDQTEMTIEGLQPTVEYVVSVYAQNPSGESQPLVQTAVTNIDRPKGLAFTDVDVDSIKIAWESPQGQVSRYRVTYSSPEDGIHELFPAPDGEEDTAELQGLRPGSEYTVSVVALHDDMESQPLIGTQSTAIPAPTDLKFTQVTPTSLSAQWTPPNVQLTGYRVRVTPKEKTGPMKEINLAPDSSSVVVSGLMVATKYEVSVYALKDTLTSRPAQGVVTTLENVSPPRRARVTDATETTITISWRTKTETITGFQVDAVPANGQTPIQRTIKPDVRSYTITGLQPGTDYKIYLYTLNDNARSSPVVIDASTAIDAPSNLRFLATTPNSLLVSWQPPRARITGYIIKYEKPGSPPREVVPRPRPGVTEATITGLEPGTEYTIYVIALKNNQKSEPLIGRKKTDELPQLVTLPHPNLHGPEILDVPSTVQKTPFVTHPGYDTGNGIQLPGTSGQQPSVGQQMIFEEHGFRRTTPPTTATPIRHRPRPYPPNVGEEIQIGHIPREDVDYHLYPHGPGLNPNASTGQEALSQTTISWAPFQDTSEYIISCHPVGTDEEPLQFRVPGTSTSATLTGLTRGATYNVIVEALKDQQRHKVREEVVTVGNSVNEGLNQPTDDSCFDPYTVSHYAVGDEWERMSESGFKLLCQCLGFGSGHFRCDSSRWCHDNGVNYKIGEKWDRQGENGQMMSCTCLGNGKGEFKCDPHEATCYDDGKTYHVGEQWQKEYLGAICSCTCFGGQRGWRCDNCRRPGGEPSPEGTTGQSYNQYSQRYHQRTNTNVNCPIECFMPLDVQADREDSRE

In assay [1], “fibronectin (human), of normal human serum and purified plasma fibronectin, P02751 32-2477 (natural protein)” came in with a percent depleted from serum after three adsorptions of 20%.

In assay [1], “vitronectin of normal human serum (total Vn, detected with polyclonal anti-Vn) (natural protein)” came in with a percent depleted from serum after three adsorptions of 25%.

The substance “activated vitronectin (human), from normal human serum, purified by heparin-sepharose chromatography (natural protein)” yielded a percent depleted from serum after three adsorptions in assay [2] of 81%. Moreover, the percent depleted from serum after two adsorptions in assay [1] was over 75%.

Take “VA-21S, synthetic peptide of vitronectin residues 48-68 sulphated at residues 56 and 59”: in assay [3], the inhibition by VA-21S of VA-26S-mediated adhesion of piliated capsulate Opc+ MC58 to HBMECs (data not illustrated) worked out at 40% and the inhibition by VA-21S of VA-26S-mediated invasion of HBMECs by piliated capsulate Opc+ MC58 (data not illustrated) is over 80%. In assay [4], this substance displayed an inhibition by VA-21S of VA-26S-mediated adhesion of C751 Opc+ Nm to HBMECs (data not illustrated) of 80% and an inhibition by VA-21S of VA-26S-mediated invasion of HBMECs by C751 Opc+ Nm (data not illustrated) of 100%.
